Patent US20240101668A1 (WUGEN, published 2024)
Substitutions are numbered along the chain they refer to.

B1: Polypeptide No. 273 (scFv, V domains shown)
VH: QVQLVQSGAEVKKPGSSVKVSCKASGDTFNSYAVNWVRQAPGQGLEWMGGIIPSFGTPTYAWKFQGRVTITADESTSTAYMELSSLRSEDTAVYYCASVSYGSFDYWGQGTLVTVSS
VL: EIVMTQSPATLSVSPGERATLSCRASQSVSSSSLAWYQQKPGQAPRLLIYDASTRASGIPARFSGSGSGTEFTLTISSLQSEDFAVYYCQQYNRLPYTFGQGTKLEIKR
notes: scFv
B2: Polypeptide No. 284 (scFv, V domains shown)
VH: QVQLVQSGAEVKKPGASVKVSCKASGYTFTSYYMHWVRQAPGQGLEWMGVINPSGGSTTYAQKFQGRVTMTRDTSTSTVYMELSSLRSEDTAVYYCARVPGVSPGDYGMDVWGQGTTVTVSS
VL: DIQMTQSPSSLSASVGDRVTITCRASHNISTWLAWYQQKPGKAPKLLIYAASSLQSGVPSRFSGSGSGTDFTLTISSLQPEDFATYYCQQSYSTPPTFGQGTRLEIKR
notes: scFv
B3: Polypeptide No. 278 (scFv, V domains shown)
VH: QVQLVQSGAEVKKPGASVKVSCKASGYTFTSYYMHWVRQAPGQGLEWMGIINPSSGSTTYAQKFQGRVTMTRDTSTSTVYMELSSLRSEDTAVYYCARSVGATSAFDIWGQGTMVTVSS
VL: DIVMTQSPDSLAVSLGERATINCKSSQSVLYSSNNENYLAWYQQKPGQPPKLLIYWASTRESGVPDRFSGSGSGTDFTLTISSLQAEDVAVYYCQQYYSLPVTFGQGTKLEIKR
notes: scFv
B4: Polypeptide No. 270 (scFv, V domains shown)
VH: QVQLVQSGAEVKKPGASVKVSCKASGGTFSSYYMHWVRQAPGQGLEWMGWISAYNGNTNYAQKLQGRVTMTRDTSTSTVYMELSSLRSEDTAVYYCAKDMGYYYDSSGGFDYWGQGTLVTVSS
VL: DIQMTQSPSSLSASVGDRVTITCRASQSISSYLNWYQQKPGKAPKLLIYDASNLETGVPSRFSGSGSGTDFTLTISSLQPEDFATYYCQQTYTTPLTFGQGTKVEIKR
notes: scFv
B5: Polypeptide No. 280 (scFv, V domains shown)
VH: B2 VH with S31R, V50I, T59S, V99G, P100E, G101T, V102R, P104Y, G105A, D106P
VL: B4 VL with R24Q, S28D, S31N, D50Q, L54K, E55D, T91S, T93S, L96P, V104L
notes: scFv
B6: Polypeptide No. 288 (scFv, V domains shown)
VH: QVQLVQSGAEVKKPGASVKVSCKASGYTFTTYDINWVRQAPGQGLEWMGWMNPSSGNSGFAQQFQGRVTMTRDTSTSTVYMELSSLRSEDTAVYYCAREDYYDSSGYYNWGQGTLVTVSS
VL: B4 VL with S28G, S31N, Y32N, D50K, N53T, T56S, T91S, T93S, L96I
notes: scFv
B7: Polypeptide No. 287 (scFv, V domains shown)
VH: QVQLVQSGAEVKKPGASVKVSCKASGYTFTRHYVHWVRQAPGQGLEWVGIINPSSGSASYAQKFQGRVTMTRDTSTSTVYMELSSLRSEDTAVYYCARDRLRSRFDYWGQGTLVTVSS
VL: B2 VL with H27Q, N28S, T31S, W32S, S93T, T94I, R103K
notes: scFv
B8: Polypeptide No. 290 (scFv, V domains shown)
VH: B4 VH with S30T, N57K, N59D, L64F, K98R, M100Q, G109A, Y112I
VL: B4 VL with T93S, T94A, L96P, V104L
notes: scFv
B9: Polypeptide No. 283 (scFv, V domains shown)
VH: QVQLVQSGAEVKKPGASVKVSCKASGYTFTSYYMDWVRQAPGQGLEWMGRINPSSGSTTYVQKFQGRVTMTRDTSTSTVYMELSSLRSEDTAVYYCARTPSGSYSDFDYWGQGTLVTVSS
VL: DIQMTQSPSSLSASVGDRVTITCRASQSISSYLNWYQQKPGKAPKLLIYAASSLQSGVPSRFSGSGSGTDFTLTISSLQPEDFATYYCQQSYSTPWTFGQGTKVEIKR
notes: scFv

target: T1, huFLT3-T227 stably expressed on Ramos cells (human, UniProt P36888 27-993); assay: FACS on cells
T1 construct: whole, on cells; also called FLT3 WT
Protocol: (§1) For FLT3, Ramos cells were engineered to stably express either the huFLT3-T227 or huFLT3-M227 variant at >200,000 receptors per cell. Parental, huFLT3-T227, and huFLT3-M227 Ramos cell lines were stained with differing levels of CellTrace Violet Cell Proliferation Kit (ThermoFisher, cat. #C34557) to barcode each cell line. Barcoded Ramos cell lines were fixed with paraformaldehyde and incubated with myc-labeled scFv periplasmic extracts and a secondary anti-myc PE-conjugated monoclonal antibody. Appropriate positive and negative controls were used. Stained cells were analyzed by flow cytometry (CytoFLEX, Beckman Coulter, Inc.) and binding was assessed by change in PE mean fluorescence intensity (MFI) of the barcoded cell populations.

| FACS geometric mean fold change over Jurkat parental [fold] | Binder |
| --- | --- |
| 10 to 30 | B1 |
| > 30 | B2 |
| > 30 | B3 |
| 10 to 30 | B4 |
| > 30 | B5 |
| 2 to 10 | B6 |
| 10 to 30 | B7 |
| 10 to 30 | B8 |
| > 30 | B9 |

target: T2, huFLT3-M227 stably expressed on Ramos cells (human, UniProt P36888 27-993); assay: FACS on cells
T2 construct: whole, on cells; also called FLT3 Mutant
Protocol: as §1

| FACS geometric mean fold change over Jurkat parental [fold] | Binder |
| --- | --- |
| 10 to 30 | B1 |
| > 30 | B2 |
| > 30 | B3 |
| 10 to 30 | B4 |
| > 30 | B5 |
| 10 to 30 | B6 |
| 2 to 10 | B7 |
| 10 to 30 | B8 |
| > 30 | B9 |
